The values below come from US20180305451A1 (COMPUGEN, published 2018).

As usually defined, the Kd is a measure of binding affinity in units of concentration. High values mean lower affinity, low ones higher affinity.

The target of one assay is T1, human HIDE1 (human, UniProt A8MVS5 20-230).
T1 construct: Endogenous on U937, HL-60, THP-1 cells, blood monocytes, AML blasts and dendritic cells; also called C19orf38; hHIDE1
T1 sequence: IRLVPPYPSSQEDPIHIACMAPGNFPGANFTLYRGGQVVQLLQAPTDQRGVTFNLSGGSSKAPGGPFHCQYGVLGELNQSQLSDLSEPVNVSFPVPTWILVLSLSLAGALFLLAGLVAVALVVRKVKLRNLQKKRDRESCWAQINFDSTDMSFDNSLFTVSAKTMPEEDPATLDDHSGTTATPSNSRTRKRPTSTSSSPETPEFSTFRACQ
Nature of the assay: FACS titration on 293T-huHIDE1 cells, human IgG4 (preliminary FACS KD). As to the method: (§1) FACS screening of reformatted IgG4 antibodies: The cell lines described in paragraph [001066] (“FACS screening of PPE”) were mixed with FACS buffer containing the purified anti-HIDE1 IgGs or isotype controls. […] Cells were washed again and fluorescence was detected using an Intellicyt HTFC screening system (Intellicyt). Data were analyzed using FCS Express (DeNovo) and plotted for affinity calculations (KD) in GraphPad Prism (GraphPad Software, Inc.). Note that each anti-HIDE1 antibody was tested over a titration range from 0-80 μg/mL.
(§2) Overview of FACS binding results for human IgG4 antibodies reformatted from Fab screening hits. […] IgGs from the same H-CDR3 family are indicated by the same color, either blue or green. CPA.12.003 & CPA.12.008 have identical heavy chain CDR-3 regions and minor differences in framework regions or other CDRs. The same holds for CPA.12.004 & CPA.12.013. N.B. not binding.

In a further assay the target is T2, mouse HIDE1 (mouse, UniProt Q75VT8 22-222).
T2 construct: Endogenous on EL4, YAC-1, J774A.1/J774A.2 cells; also called AB124611; mHIDE1
T2 sequence: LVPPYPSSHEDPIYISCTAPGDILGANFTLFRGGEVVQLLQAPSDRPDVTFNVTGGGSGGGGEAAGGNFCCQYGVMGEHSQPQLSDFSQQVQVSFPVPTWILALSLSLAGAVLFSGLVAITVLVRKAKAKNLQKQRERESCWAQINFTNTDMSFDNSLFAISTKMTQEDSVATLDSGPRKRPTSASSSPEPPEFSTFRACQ
Description: FACS on 293T-moHIDE1 cells, human IgG4. As to the method:
as §1, §2

Assay [1] addresses T3, human HIDE1-flag (human, UniProt A8MVS5 20-230).
T3 construct: Over-expressed on HEK293, SK-MEL-5, CHO-S and CHO-S OKT3 cells (pMSCV or pcDNA3.1); whole cell extracts in WB; Entry includes the signal peptide; also called hHIDE1 Flag
T3 sequence: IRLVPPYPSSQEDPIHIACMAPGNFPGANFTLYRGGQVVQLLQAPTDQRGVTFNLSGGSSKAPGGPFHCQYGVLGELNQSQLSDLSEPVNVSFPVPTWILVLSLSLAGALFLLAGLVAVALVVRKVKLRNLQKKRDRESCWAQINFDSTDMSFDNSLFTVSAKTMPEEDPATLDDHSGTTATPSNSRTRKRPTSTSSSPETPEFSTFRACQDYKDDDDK
Nature of the assay: FACS titration on CHO-S cells over-expressing human HIDE1 Flag (curves in FIG. 96A). As to the method:
(§3) FIG. 96: Affinity measurements using FACS application for the anti-human HIDE1 reformatted Fab's on CHO-S cells over-expressing human HIDE1 Flag protein. (A)CHO-S cells over-expressing the human HIDE1 Flag (circle dots) or HEK293 transduced with empty vector (square dots) were analyzed by FACS using Serotec anti-Human HIDE1 reformatted antibodies (1-5) in 7 concentrations-series dilution 1:3, 10-0.01 μg/ml. Detection was carried out using Goat Anti Human-PE secondary Ab. (B) Summary table of Serotec anti-human HIDE1 reformatted antibodies 1-5 FACS analysis, the Geo mean ratio of HEK293 cells over-expressing the human HIDE1 Flag/HEK293 transduced with empty vector and the cross reactive validation, the Geo-mean ratio of HEK293 cells over-expressing the mouse/cyno HIDE1 Flag/HEK293 transduced/transfected with empty vector. And Kd (nM) for each reformatted Fab.
The affinity The affinity measurements of the reformatted Serotec's Ab's (full hIgG1 Abs) against human HIDE1, using FACS application were tested using CHO-S cell over-expressing human HIDE1. CHO-S cells transduced with an empty vector were used as a negative control.
As shown in FIG. 96. the binding of 5 out of 5 anti-human HIDE1 reformatted Ab's (1-5) to the CHO-S cells over-expressing human HIDE1 Flag protein (circle dots) is higher than the binding of these reformatted Ab's to the empty vector cells (square dots). Two of the five antibodies (2 and 3) reaches saturation at the concentrations that were measured. The Kd value and R square are represented in the figure.

For assay [2], the target named is T3, human HIDE1-flag. Description: FACS, Geo mean ratio of HEK293 cells over-expressing human HIDE1 Flag to HEK293 empty vector, antibody 10 ug/ml. As to the method:
as §3
The performance of the reformatted Serotec's antibodies against human HIDE1, in FACS application were tested using HEK293 cell over-expressing human HIDE1 Flag, mouse HIDE1 or cyno HIDE1. HEK293 cells transduced/transfected with an empty vector were used as a negative control
(In general: Flow cytometry measures light scatter and fluorescence of single cells or particles in a stream.)

Where a chain is given by its changes, count along the chain named.

B1: CPA.12.014 human IgG4 (antibody, V domains shown)
VH: QVTLKESGPALVTPTQNLTLTCTVSGGSISSSSYYWGWIRQPPGKGLEWIGSIYYSGSTYYNPSLKSRVTISVDTSKNQFSLKLSSVTAADTAVYYCARRRNSSGWFYFDYWGQGTLVTVSS
VL: QSVLTQPPSVSGAPRQRVTISCSGSRSNIGDNAVNWYQHPPGKAPKLLIYYDDLLPSGVSDRFSGSKSGTSASLAISGLQSEDEADYYCATWDDSLNGHVFGTGTKLTVLG
notes: also called CPA.12.014-H4
Take B1: binding with human HIDE1 was put at a Kd of 13 nM. Also, the binding result with mouse HIDE1 was “no binding (tested: titration 0-80 µg/mL)”.

B2: CPA.12.007 human IgG4 (antibody, V domains shown)
VH: EVQLVESGGGVVQPGESLRLSCAASGFTFSSYGFHWVRQSPGEGLEWLAVISYDGTSKSYADSVKGRFTVSRDNSKETLYLQLSSLRREDTALYYCARDTWGYYYGMDVWGQGTTVTVSS
VL: DIQMTQSPSFLSGSVGDRVSISCRASQDIRSHLAWYQRKPGEAPKLLIYTASSLQGGVPLRFSGSGSGTEFTLTISSLQPEDSATYYCQHLHLYPLTFGGGTKLEIKR
notes: also called CPA.12.007-H4
B2 showed a Kd with human HIDE1 of 14 nM. In addition, in the assay with mouse HIDE1, the binding result was “no binding (tested: titration 0-80 µg/mL)”.

B3: CPA.12.012 human IgG4 (antibody, V domains shown)
VH: QVQLVESGGGVVQPGRSLRLSCAASGFTFSSYAMHWVRQAPGKGLEWVAVISYDGSNKYYADSVKGRFTISRDNSKNTLYLQMNSLRAEDTAVYYCARSSGSSWSNIAYWGQGTLVTVSS
VL: QSVLTQPPSVSGAPGQRVTISCIGSSSNIGAGYDVHWYRQLPGTAPKLLIYDNTNRPSGVPDRFSASKSGISASLAITGLQAEDEADYYCQSYDSNLSGVFGGGTQLTVLG
notes: also called CPA.12.012-H4; CPA.12.0012-H4
In the case of B3, binding with human HIDE1 was characterised by a dissociation constant (Kd) of 1.3 nM. Moreover, in the assay with mouse HIDE1, the binding result is given as “no binding (tested: titration 0-80 µg/mL)”.

B4: αhHIDE1_AbD25753_hIgG1_Ser_mAb (antibody, V domains shown)
VH: EVQLVQSGAEVKKPGESLKISCKGSGYSFTNYWIHWVRQMPGKGLEWMGIIDPGNSFTRYSPSFQGQVTISADKSISTAYLQWSSLKASDTAMYYCARGDGLYGGSDGYSMGGFDNWGQGTLVTVSS
VL: DIQMTQSPSSLSASVGDRVTITCRASQTIWNYLAWYQQKPGKAPKLLIYDASNLQSGVPSRFSGSGSGTDFTLTISSLQPEDFATYYCQQYSHFPHTFGQGTKVEIK
With B4, the Kd with human HIDE1-flag [1] was determined as 10.8 nM. For the same molecule, the “rMFI OX/EV, 10ug/ml, hHIDE1” value with human HIDE1-flag [2] was determined as 276.

B5: CPA.12.005 human IgG4 (antibody, V domains shown)
VH: QVQLVESGGGVVQPGRSLRVSCAVSGFTFSSYGMHWVRQAPGGGLEWVAVMSYEGSFRHYADSVKGRFTISRDNSKNTLFLQMDSLRAEDTAVYYCARDRPAGYTSGWGILDYWGQGTLVTVSS
VL: EIVMTQSPATLSLSPGERATLSCRASQSVSSYLAWYQQKPGQAPRLLIYDASNRATGIPARFSGSGSGTDFTLTISSLEPEDFAVYYCQQRSNWPLTFGGGTKVDIKR
notes: also called CPA.12.005-H4
B5 returned a Kd in the assay with human HIDE1 of 4 nM. For the same molecule, the binding result with mouse HIDE1 is “no binding (tested: titration 0-80 µg/mL)”.

B6: CPA.12.008 human IgG4 (antibody, V domains shown)
VH: QVQLQESGPGLVTPSETLSLTCTVSGGSISSVSYYWGWVRQPPGKGLEWIGSIYYSGTTAHNPSLKSRVTMAVDTSKNQFSLSLSSVTAADTAVYFCARGWRYYEDYYFDHWGQGTLVTVSS
VL: AIRMTQSPSSLSASVGDRVTITCQASQDISNYLNWYQQKPGKAPKSLIYAASSLQSGVPSKFSGSGSGTDFTLTISSLQPEDFATYYCQQYYSYPLTFGGGTKVEIKR
notes: also called CPA.12.008-H4
Take B6: the Kd with human HIDE1 was 1.3 nM. In addition, in the assay with mouse HIDE1, the binding result is “no binding (tested: titration 0-80 µg/mL)”.

B7: CPA.12.015 human IgG4 (antibody, V domains shown)
VH: QVQLQESGPGLVKPSETLSLTCTVSGGSISSSSYYWGWIRQPPGKGLEWIGSIYYSGSTHYNPSLKSRVTISVDTSKNQFSLKLSSVTAADTAVYYCARVYYGSGTGGAFDIWGQGTMVTVSS
VL: QSVLTQPPSVSGAPGQRVTISCTGSSSNIGAAYDVHWYQQLPGTAPKLLIYGDTIRPSGVPDRFSGSKSGTSASLAITGLQAEDEADYYCQSYDSSLSGSWVFGGGTQLTVLG
notes: also called CPA.12.015-H4
For the molecule B7, in the assay with human HIDE1, the Kd is 11 nM. The binding result with mouse HIDE1 is listed as “no binding (tested: titration 0-80 µg/mL)”.

B8: CPA.12.013 human IgG4 (antibody, V domains shown)
VH: EVQLVETGGGLIQPGRSLRLSCVASDFRFSNHAMHWVRQAPGKELEWVAVISSDGSNRQYAYSVKGRFTISRDNSKNTLYLEMNILGPEDTAVYFCVRSHLGPEWYYGMDVWGQGTTVTVSS
VL: DIQMTQSPSSLSASVGDRVTITCQASHDIRKFLNWYQQHPGKAPKLLIYDAAYSEIGVPSRFSGGGSGTDFTFTINNLQPDDFATYYCQQYESLPFTFGPGTKVDIKR
notes: also called CPA.12.013-H4
Consider B8, for which, in the assay with human HIDE1, the Kd turned out to be 2.6 nM. In addition, in the assay with mouse HIDE1, the binding result is “no binding (tested: titration 0-80 µg/mL)”.

B9: CPA.12.006 human IgG4 (antibody, V domains shown)
VH: EVQLVESGGGVVQPGRSLRLSCAASGFTFSSFAMHWVRQAPGKGPEWLGIILYEGGHVVYADSVRGRLTISRDNSKNTLYLQMDSLRDEDTAVYYCAKGFYHAFDVWGQGTMVTVSS
VL: QAVLTQPASLSASPGASASLTCTLRSGINVGTYRIYWYQQKPGSPPQYLLRYKSDSDKQQGSGVPSRFSGSKDASANAGILLISGLQSEDEADYYCMIWHSSAWVFGGGTQLTVLG
notes: also called CPA.12.006-H4
In the case of B9, the Kd with human HIDE1 turned out to be 2.5 nM. Moreover, the binding result with mouse HIDE1 is on record as “no binding (tested: titration 0-80 µg/mL)”.

B10: CPA.12.009 human IgG4 (antibody, V domains shown)
VH: QMQLVQSGAEVKKPGASVKVSCKASGYTFTTHAFSWVRQAPGLGLEWMGWISTYNGNTKYEQKFQGRVTLTTDSSTNTAYMELRSLRSDDTAVYYCVRDSRAFDVWGQGTMVTVSS
VL: DIQLTQSPSFLSASVGDRVTITCRASQGINSYLAWYQQKPGAAPKLLIYAASTLQSGVPSRFSGSGSGTEFTLTISSLQPEDFATYYCQQLNTYPLIFGQGTRLEIKR
notes: also called CPA.12.009-H4
In the assay with human HIDE1, B10 gave a Kd of 1.7 nM. For the same molecule, the binding result with mouse HIDE1 is given as “no binding (tested: titration 0-80 µg/mL)”.

B11: αhHIDE1_AbD25754_hIgG1_Ser_mAb (antibody, V domains shown)
VH: QVQLVQSGAEVKKPGASVKVSCKASGYTFSGYGMHWVRQAPGQGLEWMGIISPSNGNTNYAQKFQGRVTMTRDTSISTAYMELSRLRSEDTAVYYCAREVYYGLDVWGQGTLVTVSS
VL: DIQMTQSPSSLSASVGDRVTITCRASQSISSWLNWYQQKPGKAPQLLIYGASSLQSGVPSRFSGSGSGTDFTLTISSLQPEDFATYYCQQYISIPITFGQGTKVEIK
For the molecule B11, binding with human HIDE1-flag [1] was put at a Kd of 9.85 nM. Also, the “rMFI OX/EV, 10ug/ml, hHIDE1” value in the assay with human HIDE1-flag [2] is 270.

B12: αhHIDE1_AbD25755_hIgG1_Ser_mAb (antibody, V domains shown)
VH: QVQLVQSGAEVKKPGSSVKVSCKASGGTFSSYAISWVRQAPGQGLEWMGGIVPKFGTAYYAQKFQGRVTITADESTSTAYMELSSLRSEDTAVYYCARENLVYSAIAIWGQGTLVTVSS
VL: B11 VL with S28D, S31N, Q45K, Y91V, I92T, I94T, I96F
For the molecule B12, in the assay with human HIDE1-flag [1], the Kd stood at 45.4 nM. Also, the “rMFI OX/EV, 10ug/ml, hHIDE1” value in the assay with human HIDE1-flag [2] is 236.
